In this test the target is Rab7-RILP complex (human, UniProt P51149 2-195; Q96NA2 242-320). Briefly: ITC. In general terms: Isothermal titration calorimetry measures the heat released or taken up as one component is titrated into another.

Experimental findings from article PMC6363164 (2019) are described below.

Rab7-RILP complex, sequence (P51149 2-195 Q67L, chain 1 of 2): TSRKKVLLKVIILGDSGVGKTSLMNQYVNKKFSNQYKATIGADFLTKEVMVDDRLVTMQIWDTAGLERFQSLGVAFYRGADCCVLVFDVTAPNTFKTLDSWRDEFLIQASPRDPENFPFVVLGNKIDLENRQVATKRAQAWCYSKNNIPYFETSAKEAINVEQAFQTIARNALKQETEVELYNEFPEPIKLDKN
Rab7-RILP complex, sequence (Q96NA2 242-320, chain 2 of 2): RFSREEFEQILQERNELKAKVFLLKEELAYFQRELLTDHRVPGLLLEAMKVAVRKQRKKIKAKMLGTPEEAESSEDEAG

B1: ORP1 ANK (5-233) (protein)
chain: AEQQLLHHARNGNAEEVRQLLETMARNEVIADINCKGRSKSNLGWTPLHLACYFGHRQVVQDLLKAGAEVNVLNDMGDTPLHRAAFTGRKELVMLLLEYNADTTIVNGSGQTAKEVTHAEEIRSMLEAVERTQQRKLEELLLAAAREGKTTELTALLNRPNPPDVNCSDQLGNTPLHCAAYRAHKQCALKLLRSGADPNLKNKNDQKPLDLAQGAEMKHILVGNKVIYK
Take B1: binding was characterised by a dissociation constant (Kd) of 4.13 µM.

The Kd is the equilibrium constant for the complex coming apart. A low value points to higher affinity.
